Test [1] has as its target T1, sTNFR2, monomeric extracellular domains of TNFR2 obtained from etanercept (Homo sapiens, UniProt P20333).
T1 construct: extracellular domains of TNFR2 as in etanercept; also called TNFR2 ECD; source: from etanercept (Pfizer): IdeS digestion, reduction with 2-mercaptoethylamine, purified (Protein A flow-through, SEC); not shown: Fc (human IgG1, of etanercept), C-terminal, cleaved
As to the kind of experiment: SPR; antibody captured (~400 RU) on anti-human IgG Fc on a CM5 chip, sTNFR2 as analyte in twofold dilution series; PBS with 0.005% Tween 20, pH 7.4, 25 °C; 1:1 global kinetics fit. The settings on record: both partners purified.

Test [2] concerns the target T2, tumor necrosis factor-alpha (TNFα) (UniProt P01375).
T2 construct: tumor necrosis factor-alpha; source: bought: Peprotech #AF-200-01A (named for the reporter assay)
As to the kind of experiment: SPR; TNFα immobilised on a CM5 chip by amine coupling (140 RU); antibodies 10 nM or 100 nM flowed; HBS-EP+, 25 °C. The settings on record: both partners purified. (SPR reads the build-up and loss of mass on a sensor chip optically.)

Residue numbers refer to the chain shown, from its start.

T2 sequence (P01375 77-233): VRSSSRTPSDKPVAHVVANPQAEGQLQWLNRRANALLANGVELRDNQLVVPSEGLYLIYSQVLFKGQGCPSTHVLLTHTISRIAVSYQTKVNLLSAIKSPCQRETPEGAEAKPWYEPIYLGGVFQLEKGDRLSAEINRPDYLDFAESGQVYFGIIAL

B1: TR92 chimeric conventional IgG (antibody, V domains shown)
VH: KVQLQQSGAELVKPGASVKLSCKASGYTFTESIIHWVKQRSGQGLEWIGWFYPGSDNINYNEKFKDKATLTADKSSSTVYMELTRLTSEDSAVYFCASHEGPYVYFDYWGQGTTLTVSS
VL: DIVMTQSHKFMSTSVGDRVSITCKASQDVSTAVAWYQQKPGQSPKLLIYWTSTRHTGVPDRFTGSGSGTDYTLTISSVQAEDLALYYCQHHYSTPYTFGGGTKLEIQ
The molecule B1 had a Kd in test [1] of 4 nM. This lies in the single-digit nanomolar range.

B2: TR92 cIgG (chimeric, human IgG1/kappa) (antibody, V domains shown)
VH: B1 VH
VL: B1 VL
For B2, the binding result in test [2] is recorded as “no binding (tested: 10 nM or 100 nM)”.

B3: TR109 chimeric conventional IgG (antibody, V domains shown)
VH: QVQLKESGPGLVAPSQSLSITCTVSGFSLTVYGVNWVRQPPGKGLEWLGMIWGDGSTAYNSALKSRLTITKDNSKTQVFLKMNSLQTDDTARYYCARDGRRYALDYWGQGTSVTVSS
VL: DIVLTQSPTSLAVSLGQRATISCRASESVDSYGDSFLHWYQQKPGQPPILLIYRASNLDSGIPARFSGSGSRTDFTLTINPVEADDVATYYCQQSNEDPYTFGGGTKLEIK
In test [1], B3 returned a Kd of 5.6 nM.

B4: TR109 cIgG (chimeric, human IgG1/kappa) (antibody, V domains shown)
VH: B3 VH
VL: B3 VL
On to B4, for which the binding result in test [2] was “no binding (tested: 10 nM or 100 nM)”.

B5: TR45 chimeric conventional IgG (antibody, V domains shown)
VH: EVQLQQSGPEMEKPGASVKISCKASGYSFTGYNMNWVKQSIGKSLEWIGKIDPYYGGTDYNLRFKDKATLTVDKSSSTAYMHLSRLTSEDSAVYYCAREPNYGSNDWYFDVWGAGTTVTVSS
VL: DIQVTQTTSSLSASLGDRVTISCRASQDIDNYLNWYQQRPDGTVKLLIYYTSILHSGVPSRFSGSGSRTDFSLTISSLEEEDFATYFCQQGNTLPWTFGGGTKLEFK
With B5, binding in test [1] was characterised by a dissociation constant (Kd) of 19 nM.

B6: TR45 cIgG (chimeric, human IgG1/kappa) (antibody, V domains shown)
VH: B5 VH
VL: B5 VL
Regarding B6, the binding result in test [2] is “no binding (tested: 10 nM or 100 nM)”.

B7: TR96 chimeric conventional IgG (antibody, V domains shown)
VH: EVQLQQSGAELVKPGASVKLSCTPSGFNIKDTYMHWVKQRPEQGLEWIGRIDPANGYTEYDPKFQDKATITADTSSNTAYLQLSSLTSEDTAVYYCADTQLYYWGQGTTLTVSS
VL: QIVLTQSPAIMSASLGERVTMTCTASSSVSSTYLHWYQQKPGSSPKLWIYSTSNLASGVPARFSGSGSGTSYSLTISNMEAEDAATYYCHQYHRSPLTFGAGTKLELK
For the molecule B7, in test [1], binding was put at a Kd of 0.42 nM, the koff worked out at 0.00024 s⁻¹ and the kon was found to be 580000 M⁻¹ s⁻¹.

B8: TR94 cIgG (chimeric, human IgG1/kappa) (antibody, V domains shown)
VH: QVQLQQSGAELARPGTSVKLSCKASGYTFTSYWMQWVKQTPGQGLEWIGAIYPGDGDSRYIQKFKGKATLTADKSSSTAYMQLSSLASEDSAVYYCARDGNYYAMDYWGQGTSVTVSS
VL: B7 VL with M21I, N78S, L97P
As to B8, the binding result in test [2] is on record as “no binding (tested: 10 nM or 100 nM)”.

B9: TR96 cIgG (chimeric, human IgG1/kappa) (antibody, V domains shown)
VH: B7 VH
VL: B7 VL
For the molecule B9, the binding result in test [2] was “no binding (tested: 10 nM or 100 nM)”.

Broadly, the Kd is the free concentration of one partner at which half of the binding sites on the other are occupied at equilibrium, for simple one-to-one binding. By koff is commonly meant the rate constant with which the complex falls apart. High values mean fast dissociation, low ones slow dissociation. By kon is commonly meant the second-order rate constant of association. Lower therefore signals slower complex formation.
